The source of these data is the RNAGym collection of RNA variant scans (doi:10.7554/elife.90254).

B1: LINE1-full (parent)
chain: UACGUAGGUGGUUUUCCCCUGAUAGUGCUAAGGGGGCCUGGAAGUUUGGACUGGGCAGAGCUCAACACAGCGUGGCAAAGUGGCUGUGGCUAGACUGCCUCUCUGGAUUCCUCGUCACUCAGCAGGGCAUCUCUGAGAGAAAUGCC

Variants of B1 are the subject of this series. Briefly: self-cleavage, relative activity (ratio to wild type); higher = more cleavage; in vitro, sequencing; the parent is a self-cleaving ribozyme.
As for A59G A92G, the self-cleavage was 0.04.

Turning to A57G U132A, the self-cleavage was found to be 1.29.

A57G U132C: the self-cleavage came out at 0.86.

For the variant A57G U132G, the self-cleavage was found to be 0.62.

C61U A141G: the self-cleavage was 0.05.

Take A59U U119C: the self-cleavage turned out to be 0.6.

Consider A59G G86U, for which the self-cleavage was 0.03.

As for A59G G86A, the self-cleavage is 0.07.

As to A59U G75A, the self-cleavage came out at 0.51.

On to A57G U87A, for which the self-cleavage came to 0.08.

In the case of C61U A65C, the self-cleavage turned out to be 0.03.

With A59U C63A, the self-cleavage worked out at 0.02.

Consider A59U U112C, for which the self-cleavage came to 1.51.

Regarding A59U U112A, the self-cleavage stood at 0.83.

In the case of A59U A142G, the self-cleavage was 1.08.

As for A59U A142C, the self-cleavage came out at 1.03.

In the case of G60A C99A, the self-cleavage turned out to be 0.05.

Regarding A57G A65C, the self-cleavage was found to be 0.05.

Regarding A57C A141G, the self-cleavage is 0.11.

Turning to C61A A140G, the self-cleavage is 0.05.

A57G A59G: the self-cleavage was 0.62.

For A59G A77G, the self-cleavage was 0.15.

As for A57G G127A, the self-cleavage was 0.94.

G58A U87C: the self-cleavage was determined as 0.

As for G60U U62C, the self-cleavage stood at 0.08.

On to A59U A69U, for which the self-cleavage amounted to 0.04.

On to A59G U96A, for which the self-cleavage amounted to 0.07.

G58A A79G: the self-cleavage stood at 0.06.

Turning to C61U G114U, the self-cleavage is 0.01.

For the variant A57G A92G, the self-cleavage was 0.14.

For A57G A92U, the self-cleavage turned out to be 0.3.

For G58U U115C, the self-cleavage worked out at 0.04.

With A57U G135U, the self-cleavage turned out to be 0.08.

Regarding G58A U81G, the self-cleavage was 0.12.

In the case of A59G U81C, the self-cleavage is 0.09.

Take A59G U81A: the self-cleavage amounted to 0.1.

Turning to G58U A65U, the self-cleavage is 0.04.

Regarding A57G G74A, the self-cleavage amounted to 0.46.

For A57U G126U, the self-cleavage amounted to 0.1.

Consider A59G G126A, for which the self-cleavage is 0.12.

In the case of A57U C71U, the self-cleavage was determined as 0.02.

Take A57U U143A: the self-cleavage is 0.11.

As to A57G G82A, the self-cleavage came to 1.75.

Regarding A57G G82C, the self-cleavage was 1.36.

On to A57G G137A, for which the self-cleavage is 0.99.

Regarding A59G U109C, the self-cleavage came out at 0.17.

As to A57G U112A, the self-cleavage worked out at 0.99.

As for A59G C63U, the self-cleavage worked out at 0.05.

As for A57G A94G, the self-cleavage is 0.16.

Regarding A57G G60A, the self-cleavage is 0.06.

Turning to A57U A59U, the self-cleavage amounted to 0.07.

In the case of G58A C110U, the self-cleavage was found to be 0.05.

Take C61G A129C: the self-cleavage was found to be 0.03.

For A59G A67G, the self-cleavage is 0.08.

Consider A59U U115A, for which the self-cleavage was determined as 0.8.

For G60A A117G, the self-cleavage came out at 0.11.

For the variant A57C U130C, the self-cleavage was 0.18.

As to A57U U100A, the self-cleavage amounted to 0.03.

G60C U109C: the self-cleavage was 0.1.

On to A59G U132A, for which the self-cleavage was determined as 0.06.

G60U U91C: the self-cleavage was 0.01.

For G58A C145U, the self-cleavage came out at 0.04.

As to A59G C71A, the self-cleavage is 0.06.

In the case of C61U G82A, the self-cleavage came out at 0.02.

As for G58U U130C, the self-cleavage was 0.05.

For A57U A77G, the self-cleavage amounted to 0.17.

With G60A A140U, the self-cleavage was 0.03.

Turning to G60A A142G, the self-cleavage stood at 0.04.

On to A59U A138G, for which the self-cleavage was 0.83.

For the variant A59U A138C, the self-cleavage is 1.23.

Consider A59U A138U, for which the self-cleavage was 0.88.

Regarding A59U C103U, the self-cleavage is 0.5.

As to A57C U81C, the self-cleavage turned out to be 0.04.

Take A57C U81G: the self-cleavage is 0.16.

In the case of A59C U87A, the self-cleavage came out at 0.04.

For A57C C61U, the self-cleavage was 0.05.

As to A59U A141U, the self-cleavage is 1.03.

Regarding A59U A141G, the self-cleavage was 0.96.

Take C61U A140G: the self-cleavage turned out to be 0.03.

Regarding G58A A59G, the self-cleavage was 0.

For G60A U62C, the self-cleavage was determined as 0.04.

Consider A59U U73C, for which the self-cleavage came out at 1.27.

G60A A69U: the self-cleavage was determined as 0.03.

As to G60A A69G, the self-cleavage was found to be 0.05.

Turning to G60C U102C, the self-cleavage stood at 0.06.

For the variant G60A U143A, the self-cleavage worked out at 0.05.

Take A59U C95U: the self-cleavage is 0.19.

As for A59U A136G, the self-cleavage is 1.1.

Consider A59U U132C, for which the self-cleavage was found to be 0.71.

As for A57G A78U, the self-cleavage turned out to be 1.62.

Consider A59G A65G, for which the self-cleavage was found to be 0.11.

Turning to A59U G127A, the self-cleavage is 0.65.

Turning to G58A U96C, the self-cleavage is 0.04.

G60A A79G: the self-cleavage came out at 0.05.

Regarding A59G U143A, the self-cleavage was 0.08.

Take C61A A129U: the self-cleavage was 0.03.

Take C61U G106A: the self-cleavage came to 0.02.

Take G60A A141G: the self-cleavage was 0.02.

For the variant G58A A129U, the self-cleavage was 0.06.

For the variant G58A A129G, the self-cleavage stood at 0.03.

As for A59G C118U, the self-cleavage worked out at 0.02.

Take A57U U132C: the self-cleavage stood at 0.14.

Regarding A59U A64G, the self-cleavage is 0.09.

On to G60A U91C, for which the self-cleavage amounted to 0.

Turning to A59U A79G, the self-cleavage worked out at 0.83.

In the case of A59G C133A, the self-cleavage came to 0.04.

Take A59G C133U: the self-cleavage was found to be 0.08.

Turning to C61A U81C, the self-cleavage came to 0.04.

As for C61U A79G, the self-cleavage was 0.01.

On to G58U A129G, for which the self-cleavage amounted to 0.05.

Regarding G60A U104C, the self-cleavage was found to be 0.07.

Regarding G58A A136G, the self-cleavage was found to be 0.05.

Turning to A59G A69G, the self-cleavage is 0.1.

For the variant A57G U102C, the self-cleavage worked out at 0.43.

Turning to G58A U130C, the self-cleavage stood at 0.05.

On to A57U U87C, for which the self-cleavage worked out at 0.04.

For the variant A57U U87A, the self-cleavage turned out to be 0.05.

In the case of A59G G89A, the self-cleavage is 0.01.

As for A59G G89U, the self-cleavage stood at 0.02.

Take C61G: the self-cleavage is 0.06.

On to C61A, for which the self-cleavage worked out at 0.04.

On to C61U, for which the self-cleavage was 0.04.

Regarding A59G G75A, the self-cleavage turned out to be 0.04.

As to G58A U143C, the self-cleavage worked out at 0.

As for G60A G72A, the self-cleavage came out at 0.01.

G60U A79G: the self-cleavage is 0.05.

For C61A U104C, the self-cleavage was determined as 0.04.

Turning to A59G A141U, the self-cleavage worked out at 0.2.

For the variant A59G A141G, the self-cleavage worked out at 0.08.

Regarding A59G A78G, the self-cleavage came out at 0.06.

As to A57C U96C, the self-cleavage came to 0.08.

As to A57C U96A, the self-cleavage was 0.01.

A57G C61U: the self-cleavage came to 0.05.

On to A57G A79G, for which the self-cleavage was found to be 1.32.

For the variant A57G A79C, the self-cleavage worked out at 0.8.

For the variant A57U A67G, the self-cleavage worked out at 0.12.

On to A57U A67C, for which the self-cleavage was 0.07.

Turning to G58A A138G, the self-cleavage amounted to 0.04.

Turning to A59C A77U, the self-cleavage amounted to 0.6.

As for A57G U73G, the self-cleavage stood at 0.69.

For A57G U73C, the self-cleavage was 1.17.

As to G58U A141G, the self-cleavage came out at 0.04.

On to A59G A121U, for which the self-cleavage turned out to be 0.08.

Regarding A59G A121G, the self-cleavage worked out at 0.23.

In the case of A59G A121C, the self-cleavage was 0.09.

Consider A57G G125A, for which the self-cleavage was 0.52.

On to A57G G125U, for which the self-cleavage stood at 0.92.

As for A59C U108C, the self-cleavage came out at 1.28.

As to A57G A64G, the self-cleavage came out at 0.3.

A57G A64U: the self-cleavage was 0.3.

For the variant A59G G70C, the self-cleavage turned out to be 0.04.

Turning to A59C U130C, the self-cleavage is 0.8.

As to A57U G139U, the self-cleavage is 0.11.

In the case of A57U A129U, the self-cleavage turned out to be 0.11.

With A59G G127A, the self-cleavage was determined as 0.07.

In the case of A57G A77U, the self-cleavage stood at 0.58.

As to A57G A77G, the self-cleavage is 1.68.

For the variant A59G U104A, the self-cleavage turned out to be 0.14.

Consider A57G A107G, for which the self-cleavage amounted to 1.01.

For the variant A57U A65U, the self-cleavage is 0.06.

Turning to A57G C120A, the self-cleavage came to 0.93.

For G60A A124U, the self-cleavage was 0.02.

Regarding A57G U108C, the self-cleavage was determined as 1.48.

In the case of A59G A129G, the self-cleavage worked out at 0.07.

Regarding A57G G126U, the self-cleavage stood at 0.65.

In the case of A57U U112C, the self-cleavage stood at 0.01.

On to A57U A64G, for which the self-cleavage is 0.1.
